We go through three molecules from publication doi:10.1101/2025.05.11.653314, “Ureaplasma parvum SMC-ScpAB complex is capable of loop extrusion and demonstrates properties that distinguish it from Bacillus subtilis homologue” (bioRxiv, 2025).

In general, stoichiometry N refers to a count of units in the complex or per binding partner.

To fix the notation:
B1: B. subtilis Smc (enzyme, Bacillus subtilis, UniProt P51834 1-1186, looked up)
chain: MFLKRLDVIGFKSFAERISVDFVKGVTAVVGPNGSGKSNITDAIRWVLGEQSARSLRGGKMEDIIFAGSDSRKRLNLAEVTLTLDNDDHFLPIDFHEVSVTRRVYRSGESEFLINNQPCRLKDIIDLFMDSGLGKEAFSIISQGKVEEILSSKAEDRRSIFEEAAGVLKYKTRKKKAENKLFETQDNLNRVEDILHELEGQVEPLKIQASIAKDYLEKKKELEHVEIALTAYDIEELHGKWSTLKEKVQMAKEEELAESSAISAKEAKIEDTRDKIQALDESVDELQQVLLVTSEELEKLEGRKEVLKERKKNAVQNQEQLEEAIVQFQQKETVLKEELSKQEAVFETLQAEVKQLRAQVKEKQQALSLHNENVEEKIEQLKSDYFELLNSQASIRNELQLLDDQMSQSAVTLQRLADNNEKHLQERHDISARKAACETEFARIEQEIHSQVGAYRDMQTKYEQKKRQYEKNESALYQAYQYVQQARSKKDMLETMQGDFSGFYQGVKEVLKAKERLGGIRGAVLELISTEQKYETAIEIALGASAQHVVTDDEQSARKAIQYLKQNSFGRATFLPLSVIRDRQLQSRDAETAARHSSFLGVASELVTFDPAYRSVIQNLLGTVLITEDLKGANELAKLLGHRYRIVTLEGDVVNPGGSMTGGAVKKKNNSLLGRSRELEDVTKRLAEMEEKTALLEQEVKTLKHSIQDMEKKLADLRETGEGLRLKQQDVKGQLYELQVAEKNINTHLELYDQEKSALSESDEERKVRKRKLEEELSAVSEKMKQLEEDIDRLTKQKQTQSSTKESLSNELTELKIAAAKKEQACKGEEDNLARLKKELTETELALKEAKEDLSFLTSEMSSSTSGEEKLEEAAKHKLNDKTKTIELIALRRDQRIKLQHGLDTYERELKEMKRLYKQKTTLLKDEEVKLGRMEVELDNLLQYLREEYSLSFEGAKEKYQLETDPEEARKRVKLIKLAIEELGTVNLGSIDEFERVNERYKFLSEQKEDLTEAKNTLFQVIEEMDEEMTKRFNDTFVQIRSHFDQVFRSLFGGGRAELRLTDPNDLLHSGVEIIAQPPGKKLQNLNLLSGGERALTAIALLFSILKVRPVPFCVLDEVEAALDEANVFRFAQYLKKYSSDTQFIVITHRKGTMEEADVLYGVTMQESGVSKVISVKLEETKEFVQ
notes: Smc (ATPase of the Smc-ScpAB complex), Bacillus subtilis; gene cloned into pET21a; expected mass printed as 135.5 kDa; source: E. coli Rosetta (DE3), purified (HiTrap Q flow-through, Ni-NTA)
B2: B. subtilis ScpB (natural protein, Bacillus subtilis, UniProt P35155 1-197, looked up)
chain: MGLDIVNWKAIVEALLYAAGDEGLTKKQLLTVLEIEEPELNTIMADVADEYRGDTRGIELIEYADTYMLSTKKDFAPYLKKLIEVPSKGLSQASLEVLAIVSYKQPITRAEIEEIRGVKSERILHSLVAKALLCEVGRADGPGRAILYGTTPTFLEQFGLKTLDELPPLPENAEEDVLQEEADLFFENFNQTFEDIK
notes: ScpB (KITE protein of the Smc-ScpAB complex), Bacillus subtilis; gene cloned into pET21a; expected mass printed as 23.2 kDa; source: E. coli Rosetta (DE3), purified (Ni-NTA, MonoQ)
B3: B. subtilis ScpA (natural protein, Bacillus subtilis, UniProt P35154 1-251, looked up)
chain: MEEYQVKIDTFEGPLDLLLHLINRLEIDIYDIPVAKITEQYLLYVHTMRVLELDIASEYLVMAATLLSIKSRMLLPKQEEELFEDELLEEEDPREELIEKLIEYRKYKDAAKDLKEREEERQKSFTKPPSDLSEYAKEVKQSEQKLSVTVYDMIGAFQKVLKRKKINRPMETTITRQDIPIEARMNEIVHSLKSRGTRINFMDLFPYEQKEHLVVTFLAVLELMKNQLVLIEQEHNFSDIYITGSESIHGA
notes: ScpA (kleisin of the Smc-ScpAB complex), Bacillus subtilis; gene cloned into pET21a; expected mass printed as 31 kDa; source: E. coli Rosetta (DE3), purified (Ni-NTA, MonoQ)

Common to all, as to assay: cross-linking; purified proteins in various combinations incubated with or without 0.4% formaldehyde in Hepes 50 mM pH 7.5, NaCl 100 mM, DTT 0.1 mM, 20% glycerol; denatured at 65°C with SDS and BME; SDS-PAGE; bands identified by mass spectrometry (peptide fingerprinting)
Series [1] concerns the molecule itself.
The series “B. subtilis ScpA” addresses B3. Particulars: both partners purified.
The series “B. subtilis Smc” addresses B1. Particulars: both partners purified.

For B1, the “stoichiometry N” value in series [1] worked out at 2. As for B2, the binding result in the series with B. subtilis ScpA is listed as “binds”. In addition, the “stoichiometry N” value in series [1] amounted to 2. Consider B3, for which the binding result in the series with B. subtilis Smc is reported as “binds”.
